Data on 20 variants can be found in the supplement of paper PMC6757056.

± gives the standard deviation of the averaged measurements.

First the molecules themselves.
B1: library; a variant is named by its letters at N, in order (parent)
chain: GCUGUCACCGGUGCUUGGUACGUUAUAUUCAGCCGGUCUGAUGAGUCUNNNNNNAGACGAAACAGC

In data set [1] the parent is B1. The experiment in a line: normalized RNA/DNA level without ligand (relative to sTRSVctl = 100) (log10 (% of sTRSVctl)); HEK293T overexpressing SLC46A1; higher = less ribozyme self-cleavage, higher mRNA level. To be noted: without (6R,S)-folinic acid; ligand present: no. The method in brief: (§1)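 HEK293T cells received ligand, where used, 1 h before being transfected with 4 µg per 6-well well of library plasmids encoding reporter-linked ribozyme switches. After 72 h, RNA was extracted with EDTA and sequenced. RNA level was derived from RNA reads per DNA read, normalized to a spiked-in non-cleaving sequence or the top sequences, then scaled and log-transformed. Values were ×100 then log10, the top set was 25 sequences, and the minimum was 100 DNA reads.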

Data set [2] covers variants of B1. Briefly: normalized RNA/DNA level with ligand (relative to sTRSVctl = 100) (log10 (% of sTRSVctl)); HEK293T overexpressing SLC46A1; ligand concentration (+) RNA-Seq: 6 mM; higher = less ribozyme self-cleavage, higher mRNA level. To be noted: with (6R,S)-folinic acid; ligand present: yes. The method in brief:
as §1

As for GCUGUCACCGGUGCUUGGUACGUUAUAUUCAGCCGGUCUGAUGAGUCUACGGGGAGACGAAACAGC [ACGGGG], the “normalized RNA/DNA level without ligand (log10)” value in data set [1] is 1.997 ± 0.018. Moreover, the “normalized RNA/DNA level with ligand (log10)” value in data set [2] turned out to be 2.065 ± 0.02.

As for GCUGUCACCGGUGCUUGGUACGUUAUAUUCAGCCGGUCUGAUGAGUCUACGGGUAGACGAAACAGC [ACGGGU], the “normalized RNA/DNA level without ligand (log10)” value in data set [1] stood at 1.989 ± 0.0096. Besides, the “normalized RNA/DNA level with ligand (log10)” value in data set [2] was determined as 2.04 ± 0.034.

Turning to GCUGUCACCGGUGCUUGGUACGUUAUAUUCAGCCGGUCUGAUGAGUCUACGGGCAGACGAAACAGC [ACGGGC], in data set [1], the “normalized RNA/DNA level without ligand (log10)” value stood at 2.097 ± 0.0034. Moreover, in data set [2], the “normalized RNA/DNA level with ligand (log10)” value is 2.09 ± 0.031.

As for GCUGUCACCGGUGCUUGGUACGUUAUAUUCAGCCGGUCUGAUGAGUCUGCGGUCAGACGAAACAGC [GCGGUC], the “normalized RNA/DNA level without ligand (log10)” value in data set [1] was determined as 2.06 ± 0.024. In addition, the “normalized RNA/DNA level with ligand (log10)” value in data set [2] amounted to 2.06 ± 0.056.

In the case of GCUGUCACCGGUGCUUGGUACGUUAUAUUCAGCCGGUCUGAUGAGUCUGCGGUAAGACGAAACAGC [GCGGUA], in data set [1], the “normalized RNA/DNA level without ligand (log10)” value amounted to 1.98 ± 0.017. For the same variant, the “normalized RNA/DNA level with ligand (log10)” value in data set [2] stood at 2.011 ± 0.014.

In the case of GCUGUCACCGGUGCUUGGUACGUUAUAUUCAGCCGGUCUGAUGAGUCUACGGCGAGACGAAACAGC [ACGGCG], the “normalized RNA/DNA level without ligand (log10)” value in data set [1] amounted to 2.015 ± 0.0037. In data set [2], the “normalized RNA/DNA level with ligand (log10)” value amounted to 2.0489 ± 0.00014.

As for GCUGUCACCGGUGCUUGGUACGUUAUAUUCAGCCGGUCUGAUGAGUCUACGGCCAGACGAAACAGC [ACGGCC], in data set [1], the “normalized RNA/DNA level without ligand (log10)” value came out at 2.117 ± 0.009. In addition, in data set [2], the “normalized RNA/DNA level with ligand (log10)” value came to 2.06 ± 0.056.

For the variant GCUGUCACCGGUGCUUGGUACGUUAUAUUCAGCCGGUCUGAUGAGUCUACGGCUAGACGAAACAGC [ACGGCU], in data set [1], the “normalized RNA/DNA level without ligand (log10)” value was found to be 2.048 ± 0.014. Besides, in data set [2], the “normalized RNA/DNA level with ligand (log10)” value turned out to be 2.04 ± 0.044.

In the case of GCUGUCACCGGUGCUUGGUACGUUAUAUUCAGCCGGUCUGAUGAGUCUUCGGCGAGACGAAACAGC [UCGGCG], the “normalized RNA/DNA level without ligand (log10)” value in data set [1] came out at 1.997 ± 0.011. Further, in data set [2], the “normalized RNA/DNA level with ligand (log10)” value is 2.05 ± 0.046.

As for GCUGUCACCGGUGCUUGGUACGUUAUAUUCAGCCGGUCUGAUGAGUCUUCGGCAAGACGAAACAGC [UCGGCA], the “normalized RNA/DNA level without ligand (log10)” value in data set [1] was 2.03 ± 0.029. Moreover, the “normalized RNA/DNA level with ligand (log10)” value in data set [2] was determined as 2.04 ± 0.034.

As for GCUGUCACCGGUGCUUGGUACGUUAUAUUCAGCCGGUCUGAUGAGUCUUCGGUAAGACGAAACAGC [UCGGUA], the “normalized RNA/DNA level without ligand (log10)” value in data set [1] was determined as 1.93 ± 0.029. For the same variant, the “normalized RNA/DNA level with ligand (log10)” value in data set [2] turned out to be 1.985 ± 0.015.

For GCUGUCACCGGUGCUUGGUACGUUAUAUUCAGCCGGUCUGAUGAGUCUGCGGGGAGACGAAACAGC [GCGGGG], the “normalized RNA/DNA level without ligand (log10)” value in data set [1] came out at 2.054 ± 0.0092. Further, the “normalized RNA/DNA level with ligand (log10)” value in data set [2] came out at 2.055 ± 0.017.

Take GCUGUCACCGGUGCUUGGUACGUUAUAUUCAGCCGGUCUGAUGAGUCUGCGGGUAGACGAAACAGC [GCGGGU]: the “normalized RNA/DNA level without ligand (log10)” value in data set [1] worked out at 2.05 ± 0.045. Also, the “normalized RNA/DNA level with ligand (log10)” value in data set [2] was 2.017 ± 0.012.

As to GCUGUCACCGGUGCUUGGUACGUUAUAUUCAGCCGGUCUGAUGAGUCUGCGGGAAGACGAAACAGC [GCGGGA], the “normalized RNA/DNA level without ligand (log10)” value in data set [1] worked out at 2.041 ± 0.0095. Moreover, the “normalized RNA/DNA level with ligand (log10)” value in data set [2] came out at 2.06 ± 0.023.

As for GCUGUCACCGGUGCUUGGUACGUUAUAUUCAGCCGGUCUGAUGAGUCUGCGGGCAGACGAAACAGC [GCGGGC], in data set [1], the “normalized RNA/DNA level without ligand (log10)” value turned out to be 1.95 ± 0.045. In addition, in data set [2], the “normalized RNA/DNA level with ligand (log10)” value came out at 1.959 ± 0.017.

As for GCUGUCACCGGUGCUUGGUACGUUAUAUUCAGCCGGUCUGAUGAGUCUCCGGGCAGACGAAACAGC [CCGGGC], the “normalized RNA/DNA level without ligand (log10)” value in data set [1] was 2.102 ± 0.01. For the same variant, the “normalized RNA/DNA level with ligand (log10)” value in data set [2] was 2.073 ± 0.0025.

With GCUGUCACCGGUGCUUGGUACGUUAUAUUCAGCCGGUCUGAUGAGUCUCCGGGGAGACGAAACAGC [CCGGGG], the “normalized RNA/DNA level without ligand (log10)” value in data set [1] turned out to be 1.985 ± 0.01. Also, in data set [2], the “normalized RNA/DNA level with ligand (log10)” value stood at 2.01 ± 0.049.

Consider GCUGUCACCGGUGCUUGGUACGUUAUAUUCAGCCGGUCUGAUGAGUCUCCGGGAAGACGAAACAGC [CCGGGA], for which, in data set [1], the “normalized RNA/DNA level without ligand (log10)” value is 2.039 ± 0.0033. In addition, the “normalized RNA/DNA level with ligand (log10)” value in data set [2] amounted to 2.02 ± 0.054.

Take GCUGUCACCGGUGCUUGGUACGUUAUAUUCAGCCGGUCUGAUGAGUCUCCGGGUAGACGAAACAGC [CCGGGU]: the “normalized RNA/DNA level without ligand (log10)” value in data set [1] was determined as 2.07 ± 0.036. Moreover, in data set [2], the “normalized RNA/DNA level with ligand (log10)” value came out at 2.05 ± 0.04.

Turning to GCUGUCACCGGUGCUUGGUACGUUAUAUUCAGCCGGUCUGAUGAGUCUGCGGAUAGACGAAACAGC [GCGGAU], the “normalized RNA/DNA level without ligand (log10)” value in data set [1] was 2.021 ± 0.0026. Also, in data set [2], the “normalized RNA/DNA level with ligand (log10)” value is 2.04 ± 0.042.
